{"source": "paper PMC6748660", "target": "full-length mScarlet-tagged tau (2N4R) (human) (UniProt P10636)", "assay": "TIRF microscopy, condensate enrichment assay"}
{"substance": "GFP-tagged isolated C-terminus of tau (domain or fragment)", "values": [{"measurement": "fold enrichment within mScarlet-2N4R condensates over the lattice", "result": 1.2, "unit": "fold"}]}
